These results are taken from patent US20110059092A1 (INNOGENETICS, published 2011).

Where a chain is given by its changes, count along the chain named. Ends that are not written are not given here. * marks the point of attachment. Biotin = O=C1N[C@H]2[C@H](CS[C@H]2CCCCC(=O)*)N1

The target in assay [1] is T1, Aβ8-15-bio (not fully specified (C-terminus); printed as S8GYEVHHQ15GK-biotin).
T1 construct: Synthetic biotinylated peptide with a free N-terminus at Ser8 of Aβ; also called IGP-2258; Aβ8-15 peptide
T1 peptide: SGYEVHHQGK(Biotin)
Briefly: Luminex: biotinylated peptide on avidin beads, anti-mouse phycoerythrin detection. From the text: (§1) To determine the specificity of the antibody a peptide was used which is shifted two amino-acids N-terminal as compared to the Aβ₈₋₁₅, the Aβ₆₋₁₃ peptide. The biotinylated versions of these peptides are used in order to capture it efficiently to avidin Luminex beads. […] The results presented in Table 3 are raw data expressed as Mean Fluorescence Intensity (MFI).

Another assay concerns the target T2, Aβ6-13-bio (not fully specified (C-terminus); printed as H6DSGYEVH13GK-biotin).
T2 construct: Synthetic biotinylated peptide, shifted two amino acids N-terminal compared with Aβ8-15; also called Aβ6-13 peptide
T2 peptide: HDSGYEVHGK(Biotin)
The description is as above.
Text: as §1

In assay [2] the target is T1, Aβ8-15-bio. In words: bridging assay: BSA-coupled Aβ8-15 peptide (PG127) captures one binding site, biotinylated peptide detects. Here is the method: Spleen of both mice were prepared and fused to SP2/0 cells. After plating, 66 plates (±3000 clones) were screened. […] In the bridging assay, BSA coupled peptide IGP-128, PG127 (see Table 3) was used to capture one binding site of the antibody and a biotinylated peptide was used to detect the captured antibody in a so-called bridging assay. This assay gives an indication on the affinity of the antibody: a high-affinity antibody will give a higher signal than a lower affinity antibody. Indeed ‘two classes’ of antibodies have been identified.

B1: TeiA 2b.6 (antibody, IgG2b, V domains shown)
VH: GGLVQPGGSLRLSCATSGFTFTDFYMEWVRQPPGKRLEWIAASRNKANGYTTEYSASVKGRFIVSRDTSQGILYLQMSALRAEDTAIYYCAIYRYYAMDYWGQGTSVTVSS
VL: SSLTVTAGEKVTMSCKSSQSLFNSGRQTNYLTWFQQRPGQAPKLLIYWASTRGSGVPDRFTGSGSGTEFTLTISSVQAEDLAVYYCQNDYTYPLTFGAG
notes: Mouse monoclonal, IgG2b; also called 2.13.E5; 2.13.E5.E4
With B1, the “Luminex assay (MFI)” value in the assay with Aβ8-15-bio [1] stood at 1690 MFI; with Aβ6-13-bio, 51 MFI. Further, the “Bridging assay (OD450)” value in the assay with Aβ8-15-bio [2] stood at 4 OD450.

B2: TeiA 1.1 (antibody, IgG1, V domains shown)
VH: GGLVQPGGSLRLSCATSGFTFSDFFIEWVRQPPGKRLEWITASRNKNYDYKTEYSASVKGRFIVSRDTSQSILYLQMNALRAEDTAIYYCAIYRHYAMDYWGQGTSVTVSS
VL: B1 VL with K16T, R26T, F34Y, R37K, A41P, G53E, E68D
notes: Mouse monoclonal, IgG1; The printed variable regions seem N-terminally incomplete (primer region missing); also called 3.46.B10; 3.46.B10.E7
B2: the “Luminex assay (MFI)” value came out at 1820 MFI with Aβ8-15-bio [1] and 24 MFI with Aβ6-13-bio. Moreover, in the assay with Aβ8-15-bio [2], the “Bridging assay (OD450)” value is 3.76 OD450.

B3: TeiA 1.7 (antibody, IgG1, V domains shown)
VH: GGLVQPGGSLRLSCATSGFTFSDFYMEWVRQPPGRRLEWIAASRDKAKDYTTEYSASVKGRFIVSRDTSQSIFYLQMNALRSEDTAIYYCATYFSYAMDYWGLGTSVTVSS
VL: SSLTVTAGEKVTMNCKSSQNLLNSGNQVNYLTWFQQKPGQPPKLLIYWASTRESGVPDRFIGSGSGTDFTLTINSVQAEDLAVYYCQNDYRYPLTFGAG
notes: Mouse monoclonal, IgG1; The printed variable regions seem N-terminally incomplete (primer region missing); also called 2.8.A3; 2.8.A3.F8
In the case of B3, the “Luminex assay (MFI)” value in the assay with Aβ8-15-bio [1] was 1720 MFI; with Aβ6-13-bio, 5 MFI. The “Bridging assay (OD450)” value with Aβ8-15-bio [2] is 0.222 OD450.
